B1: α-crystallin (fraction containing αA-crystallin and αB-crystallin) (complex, porcine (purified from porcine lenses))
chain 1: MDIAIQHPWFKRALGPFYPSRLFDQFFGEGLFEYDLLPFLSSTISPYYRQSLFRTVLDSGVSEVRSDRDKFVIFLDVKHFSPEDLTVKVQEDFVEIHGKHNERQDDHGYISREFHRRYRLPSNVDQSALSCSLSADGMLTFSGPKVPSGVDAGHSERAIPVSREEKPSSAPTS
chain 2: MDIAIHHPWIRRPFFPFHSPSRLFDQFFGEHLLESDLFPASTSLSPFYFRPPSFLRAPSWIDTGLSEMRLEKDRFSVNLDVKHFSPEELKVKVLGDVIEVHGKHEERQDEHGFISREFHRKYRIPADVDPLTITSSLSSDGVLTVNGPRRQASGPERTIPITREEKPAVTAAPKK
B2: creatine kinase M (CKMM) (enzyme)
chain: not shown

The series “SEC-MALS” concerns the molecule itself. In words: SEC-MALS.
For series [1], the target named is B2. In words: ITC.
The target in series [2] is B2. Briefly: ITC. The source holds these as a separate data set.
In series [3] the target is B2. Briefly: ITC. This is another data set of the same source.
In series [4] the target is B1. In words: ITC.
The target of series [5] is B1. In words: ITC. This is another data set of the same source.
The target of series [6] is B1. Briefly: ITC. The source holds these as a separate data set.
Series [7] concerns the target B1. Briefly: ITC. This is another data set of the same source.

Read-outs that look alike come from different tables or passages of the source.

Chain of creatine kinase M (CKMM) (P00563 whole entry): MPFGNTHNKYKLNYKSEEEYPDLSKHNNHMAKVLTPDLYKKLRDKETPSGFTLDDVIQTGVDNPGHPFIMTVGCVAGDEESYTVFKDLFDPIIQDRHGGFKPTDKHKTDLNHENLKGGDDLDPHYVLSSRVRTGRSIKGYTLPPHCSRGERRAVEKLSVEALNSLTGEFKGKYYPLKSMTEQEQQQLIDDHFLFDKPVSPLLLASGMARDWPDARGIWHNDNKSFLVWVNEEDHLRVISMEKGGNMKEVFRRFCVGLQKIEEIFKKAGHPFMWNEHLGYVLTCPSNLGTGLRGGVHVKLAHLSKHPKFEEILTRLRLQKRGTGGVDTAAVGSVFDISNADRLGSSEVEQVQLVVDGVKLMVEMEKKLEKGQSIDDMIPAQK

Take B1: the “stoichiometry N” value in “SEC-MALS” was in the range of 28 to 40. Besides, the values for the Ka with creatine kinase M (CKMM) [1], in the series with creatine kinase M (CKMM) [2] and with creatine kinase M (CKMM) [3] were 3e+06 M⁻¹, 1.23e+06 M⁻¹ and 4.37e+06 M⁻¹, respectively. Moreover, the equilibrium dissociation constant (Kd) with creatine kinase M (CKMM) [1] is 333 nM; with creatine kinase M (CKMM) [2], 816 nM; in the series with creatine kinase M (CKMM) [3], 228 nM.
Consider B2, for which the figures for the dH in series [4], in series [5] and in series [7] were 86.6 kcal/mol, 102 kcal/mol and 130 kcal/mol, respectively. In addition, the “stoichiometry N” value in series [4] is 0.068; in series [5] it was 0.068; in series [6], 28; in series [7] it was 0.063.
